This note sets out measurements from the supplement of paper PMC10567573.

B1: VENTX (parent)
chain: VFQHHQYLSPLERKRLAREMQLSE
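Further: lentivirally expressed fusions sorted by FACS into six bins by GFP to DsRed ratio, PSI derived from sequencing read proportions per bin multiplied by bin number.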

The variants in this data set derive from B1. The data set can be described thus: protein stability index of a GFP-peptide fusion (GPS, HEK-293T) (PSI 1-6); higher = more stable. The settings on record: c terminus: a fixed tail appended.
Take VFQHHQYDSPLERKRLAREMQLSE [L8D]: the protein stability index was 3.31.

For VFQHHQYSSPLERKRLAREMQLSE [L8S], the protein stability index was found to be 2.09.

For the variant VFQIHQYLSPLERKRLAREMQLSE [H4I], the protein stability index was 2.43.

As for VFQEHQYLSPLERKRLAREMQLSE [H4E], the protein stability index worked out at 3.52.

Take VFQLHQYLSPLERKRLAREMQLSE [H4L]: the protein stability index stood at 2.89.

VFQQHQYLSPLERKRLAREMQLSE [H4Q]: the protein stability index amounted to 3.5.

Consider VFQRHQYLSPLERKRLAREMQLSE [H4R], for which the protein stability index turned out to be 2.37.

For VFQNHQYLSPLERKRLAREMQLSE [H4N], the protein stability index worked out at 2.85.

As for VFQVHQYLSPLERKRLAREMQLSE [H4V], the protein stability index came to 2.7.

For the variant VFQWHQYLSPLERKRLAREMQLSE [H4W], the protein stability index came to 2.03.

On to VFQMHQYLSPLERKRLAREMQLSE [H4M], for which the protein stability index was determined as 2.31.

Turning to VFQYHQYLSPLERKRLAREMQLSE [H4Y], the protein stability index was 2.21.

Turning to VFQFHQYLSPLERKRLAREMQLSE [H4F], the protein stability index was determined as 1.69.

For the variant VFQPHQYLSPLERKRLAREMQLSE [H4P], the protein stability index turned out to be 3.27.

VFQSHQYLSPLERKRLAREMQLSE [H4S]: the protein stability index is 2.91.

On to VFQGHQYLSPLERKRLAREMQLSE [H4G], for which the protein stability index amounted to 3.26.

As to VFQTHQYLSPLERKRLAREMQLSE [H4T], the protein stability index came out at 3.06.

As to VFQKHQYLSPLERKRLAREMQLSE [H4K], the protein stability index worked out at 2.5.

In the case of VFQHHQNLSPLERKRLAREMQLSE [Y7N], the protein stability index was 2.36.

Turning to VFQHHQDLSPLERKRLAREMQLSE [Y7D], the protein stability index was determined as 3.84.

As to VFQHHQVLSPLERKRLAREMQLSE [Y7V], the protein stability index came to 3.48.

As for VFQHHQELSPLERKRLAREMQLSE [Y7E], the protein stability index is 3.22.

In the case of VFQHHQCLSPLERKRLAREMQLSE [Y7C], the protein stability index was determined as 2.5.

In the case of VFQHHQILSPLERKRLAREMQLSE [Y7I], the protein stability index came out at 2.54.

For VFQHHQPLSPLERKRLAREMQLSE [Y7P], the protein stability index is 3.33.

Turning to VFQHHQKLSPLERKRLAREMQLSE [Y7K], the protein stability index came out at 2.71.

Turning to VFQHHQFLSPLERKRLAREMQLSE [Y7F], the protein stability index was determined as 2.99.

Take VFQHHQWLSPLERKRLAREMQLSE [Y7W]: the protein stability index was 2.11.

Consider VFQHHQRLSPLERKRLAREMQLSE [Y7R], for which the protein stability index was determined as 2.42.

In the case of VFQHHQMLSPLERKRLAREMQLSE [Y7M], the protein stability index was found to be 3.04.

For the variant VFQHHQGLSPLERKRLAREMQLSE [Y7G], the protein stability index was 2.34.

As to VFQHHQALSPLERKRLAREMQLSE [Y7A], the protein stability index was 2.98.

As for VFQHHQLLSPLERKRLAREMQLSE [Y7L], the protein stability index came to 2.5.

For VFQHHQSLSPLERKRLAREMQLSE [Y7S], the protein stability index amounted to 2.68.

VFQHHQQLSPLERKRLAREMQLSE [Y7Q]: the protein stability index came to 3.27.

In the case of VFQHHQTLSPLERKRLAREMQLSE [Y7T], the protein stability index is 3.49.

As to VFQHHQHLSPLERKRLAREMQLSE [Y7H], the protein stability index was 2.33.

As to VFQHHTYLSPLERKRLAREMQLSE [Q6T], the protein stability index is 2.75.

Turning to VFQHHWYLSPLERKRLAREMQLSE [Q6W], the protein stability index was determined as 2.17.

Take VFQHHRYLSPLERKRLAREMQLSE [Q6R]: the protein stability index came out at 2.47.

As to VFQHHYYLSPLERKRLAREMQLSE [Q6Y], the protein stability index amounted to 2.09.

Regarding VFQHHIYLSPLERKRLAREMQLSE [Q6I], the protein stability index was 2.17.

Turning to VFQHHCYLSPLERKRLAREMQLSE [Q6C], the protein stability index was determined as 1.83.

With VFQHHEYLSPLERKRLAREMQLSE [Q6E], the protein stability index is 3.66.

In the case of VFQHHAYLSPLERKRLAREMQLSE [Q6A], the protein stability index amounted to 2.75.

Regarding VFQHHDYLSPLERKRLAREMQLSE [Q6D], the protein stability index turned out to be 3.23.

Consider VFQHHLYLSPLERKRLAREMQLSE [Q6L], for which the protein stability index was 2.02.

Take VFQHHSYLSPLERKRLAREMQLSE [Q6S]: the protein stability index came to 2.3.

As to VFQHHVYLSPLERKRLAREMQLSE [Q6V], the protein stability index came to 2.42.

For VFQHHPYLSPLERKRLAREMQLSE [Q6P], the protein stability index turned out to be 2.09.

As for VFQHHGYLSPLERKRLAREMQLSE [Q6G], the protein stability index turned out to be 2.51.

Turning to VFQHHNYLSPLERKRLAREMQLSE [Q6N], the protein stability index was 3.05.

Take VFQHHKYLSPLERKRLAREMQLSE [Q6K]: the protein stability index was determined as 2.69.

Regarding VFQHHHYLSPLERKRLAREMQLSE [Q6H], the protein stability index stood at 3.06.

For the variant VFQHHMYLSPLERKRLAREMQLSE [Q6M], the protein stability index turned out to be 2.56.

On to VFQHHFYLSPLERKRLAREMQLSE [Q6F], for which the protein stability index is 1.84.

Turning to VFQHHQYLSPLRRKRLAREMQLSE [E12R], the protein stability index was determined as 2.45.

Take VFQHHQYLSPLYRKRLAREMQLSE [E12Y]: the protein stability index came out at 2.19.

Regarding VFQHHQYLSPLARKRLAREMQLSE [E12A], the protein stability index turned out to be 1.96.

On to VFQHHQYLSPLWRKRLAREMQLSE [E12W], for which the protein stability index amounted to 1.8.

For VFQHHQYLSPLQRKRLAREMQLSE [E12Q], the protein stability index is 2.33.

For VFQHHQYLSPLHRKRLAREMQLSE [E12H], the protein stability index came out at 2.21.

As to VFQHHQYLSPLLRKRLAREMQLSE [E12L], the protein stability index was 2.13.

Consider VFQHHQYLSPLMRKRLAREMQLSE [E12M], for which the protein stability index is 2.74.

Consider VFQHHQYLSPLCRKRLAREMQLSE [E12C], for which the protein stability index came out at 1.98.

As for VFQHHQYLSPLTRKRLAREMQLSE [E12T], the protein stability index turned out to be 2.08.

Take VFQHHQYLSPLPRKRLAREMQLSE [E12P]: the protein stability index amounted to 2.99.

On to VFQHHQYLSPLDRKRLAREMQLSE [E12D], for which the protein stability index was 2.39.

Turning to VFQHHQYLSPLFRKRLAREMQLSE [E12F], the protein stability index is 2.58.

Consider VFQHHQYLSPLNRKRLAREMQLSE [E12N], for which the protein stability index is 2.56.

Turning to VFQHHQYLSPLKRKRLAREMQLSE [E12K], the protein stability index amounted to 1.82.

Consider VFQHHQYLSPLSRKRLAREMQLSE [E12S], for which the protein stability index came out at 2.74.

As for VFQHHQYLSPLVRKRLAREMQLSE [E12V], the protein stability index came out at 2.74.

Consider VFQHHQYLSPLIRKRLAREMQLSE [E12I], for which the protein stability index was 2.66.

With VFQHHQYLSPLGRKRLAREMQLSE [E12G], the protein stability index amounted to 2.07.

On to VFQHDQYLSPLERKRLAREMQLSE [H5D], for which the protein stability index came out at 3.47.

VFQHGQYLSPLERKRLAREMQLSE [H5G]: the protein stability index was 3.71.

In the case of VFQHTQYLSPLERKRLAREMQLSE [H5T], the protein stability index was determined as 4.21.

Consider VFQHMQYLSPLERKRLAREMQLSE [H5M], for which the protein stability index amounted to 3.19.

Regarding VFQHYQYLSPLERKRLAREMQLSE [H5Y], the protein stability index was 2.43.

For the variant VFQHEQYLSPLERKRLAREMQLSE [H5E], the protein stability index stood at 3.71.

On to VFQHVQYLSPLERKRLAREMQLSE [H5V], for which the protein stability index worked out at 2.78.

Regarding VFQHWQYLSPLERKRLAREMQLSE [H5W], the protein stability index came out at 1.96.

As to VFQHPQYLSPLERKRLAREMQLSE [H5P], the protein stability index was 3.21.

Turning to VFQHKQYLSPLERKRLAREMQLSE [H5K], the protein stability index was found to be 2.94.

Consider VFQHCQYLSPLERKRLAREMQLSE [H5C], for which the protein stability index stood at 2.17.

On to VFQHRQYLSPLERKRLAREMQLSE [H5R], for which the protein stability index stood at 1.93.

With VFQHSQYLSPLERKRLAREMQLSE [H5S], the protein stability index worked out at 2.63.

Turning to VFQHIQYLSPLERKRLAREMQLSE [H5I], the protein stability index was 2.08.

In the case of VFQHFQYLSPLERKRLAREMQLSE [H5F], the protein stability index came to 2.96.

Regarding VFQHQQYLSPLERKRLAREMQLSE [H5Q], the protein stability index came to 3.01.

Consider VFQHNQYLSPLERKRLAREMQLSE [H5N], for which the protein stability index stood at 2.83.

For VFQHLQYLSPLERKRLAREMQLSE [H5L], the protein stability index was 2.42.

VFQHAQYLSPLERKRLAREMQLSE [H5A]: the protein stability index was 2.5.
